According to patent US20220031842A1 (JIANGSU HENGRUI MEDICINE, published 2022):
Changes are numbered by the printed parent chain.

B1: Hu303-004 (antibody, human IgG4 S228P, kappa, V domains shown)
VH: QVQLVQSGAEVKKPGASVKVSCKASGYTFTDYYMNWVRQAPGQRLEWMGVINPYNGDTAYNQKFKGRVTITRDTSASTAYMELSSLRSEDTAVYYCARDDGYYDYYFDVWGQGTTVTVSS
VL: DIQMTQSPSSLSASVGDRVTITCRASQDIGSRLNWYQQKPGKAPKLLIYATSTLDSGVPSRFSGSGSGTDFTLTISSLQPEDFATYYCLQLASSPPTFGGGTKVEIKR
notes: Humanized mAb303
B2: Hu303-022 (antibody, human IgG4 S228P, kappa, V domains shown)
VH: B1 VH with F29L, M48I, V68A, I70L, R72V, T74K, A97T
VL: B1 VL with Y36L, P44F, L46R, S60K, G66R
notes: Humanized mAb303
B3: Hu303-006 (antibody, human IgG4 S228P, kappa, V domains shown)
VH: B1 VH
VL: B1 VL with L46R, S60K, G66R
notes: Humanized mAb303
B4: Hu303-009 (antibody, human IgG4 S228P, kappa, V domains shown)
VH: B1 VH with R72V, T74K, A97T
VL: B1 VL
notes: Humanized mAb303
B5: Hu303-014 (antibody, human IgG4 S228P, kappa, V domains shown)
VH: B1 VH with F29L, R72V, T74K, A97T
VL: B1 VL
notes: Humanized mAb303
B6: Hu303-005 (antibody, human IgG4 S228P, kappa, V domains shown)
VH: B1 VH
VL: B1 VL with L46R, G66R
notes: also called LAG-3 antibody Hu303-005; LAG3 antibody Hu303-005
B7: Hu303-016 (antibody, human IgG4 S228P, kappa, V domains shown)
VH: B1 VH with F29L, R72V, T74K, A97T
VL: B1 VL with L46R, S60K, G66R
notes: Humanized mAb303
B8: Hu303-023 (antibody, human IgG4 S228P, kappa, V domains shown)
VH: B1 VH with F29L, M48I, V68A, I70L, R72V, T74K, A97T
VL: B1 VL with I21L, Y36L, K42G, P44F, L46R, S60K, G66R, T85D
notes: Humanized mAb303
B9: Hu229-014 (antibody, human IgG4 S228P, kappa, V domains shown)
VH: QVQLVQSGSELKKPGASVKVSCKASGYTFTTSGMSWVKQAPGQGLKWMGWINTYSGVPTYADDFKGRFVFSLDTSVSTAYLQISSLKAEDTATYYCARDNYDARDVYYYAMDYWGQGTTVTVSS
VL: DIQMTQSPSSLSASVGDRVTITCRASENIYSNLAWYQQKPGKAPKLLVYAATNLADGVPSRFSGSGSGTQYTLTISSLQPEDFATYYCQHFWITPWTFGGGTKVEIKR
notes: Humanized mAb229
B10: Hu229-009 (antibody, human IgG4 S228P, kappa, V domains shown)
VH: B9 VH with K38R, T93V
VL: B9 VL with Q70D
notes: Humanized mAb229
B11: Hu229-016 (antibody, human IgG4 S228P, kappa, V domains shown)
VH: B9 VH with Y95F
VL: B9 VL with V48I, Q70D, Y71F
notes: Humanized mAb229
B12: Hu229-011 (antibody, human IgG4 S228P, kappa, V domains shown)
VH: B9 VH with K38R, T93V
VL: B9 VL with A43S
notes: Humanized mAb229

What was measured:
[1] = target: T1, Fusion protein of LAG-3 extracellular region and mIgG2a Fc (human); experiment: ELISA, LAG-3-mFc captured by anti-mouse Fc on plate (which fusion: inferred)
T1 construct: Limits of the signal peptide are marked only by lost underlining; also called LAG-3-mFc; LAG-3-mFc fusion protein
T1 chain: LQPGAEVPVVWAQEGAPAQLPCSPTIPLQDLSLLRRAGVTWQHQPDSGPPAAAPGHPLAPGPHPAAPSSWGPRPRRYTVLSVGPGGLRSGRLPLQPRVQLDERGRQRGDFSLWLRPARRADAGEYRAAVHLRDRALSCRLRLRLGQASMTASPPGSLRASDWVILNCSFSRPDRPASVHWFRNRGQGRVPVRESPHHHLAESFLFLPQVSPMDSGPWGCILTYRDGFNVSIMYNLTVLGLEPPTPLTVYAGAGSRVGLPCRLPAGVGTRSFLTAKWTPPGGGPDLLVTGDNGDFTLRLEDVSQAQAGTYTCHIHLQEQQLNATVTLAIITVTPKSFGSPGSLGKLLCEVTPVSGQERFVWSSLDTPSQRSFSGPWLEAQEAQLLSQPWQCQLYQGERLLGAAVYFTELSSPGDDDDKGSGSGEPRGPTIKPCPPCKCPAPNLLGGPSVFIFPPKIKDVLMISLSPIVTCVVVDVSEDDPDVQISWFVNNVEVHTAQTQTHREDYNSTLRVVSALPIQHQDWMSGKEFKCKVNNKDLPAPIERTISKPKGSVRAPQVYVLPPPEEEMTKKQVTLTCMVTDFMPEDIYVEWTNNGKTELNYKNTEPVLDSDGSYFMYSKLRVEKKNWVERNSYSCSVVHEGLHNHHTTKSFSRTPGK
Excerpt: The binding ability of anti-LAG-3 antibody to human LAG-3 protein was detected by ELISA assay. LAG-3 fusion protein with Fc or mFc tag was immobilized into 96-well microtiter plate by binding to anti-Fc or anti-mFc antibody coated on the microtiter plate, the strength of the signal after the addition of the antibody was used to determine the binding activity of the antibody to LAG-3, the specific experimental method is as follows.
The goat anti-human Fc antibody (Jackson Immuno Research, Cat No. 109-005-008) or goat anti-mouse Fc antibody (Sigma, Cat No. M3534-1ML) was diluted to a concentration of 2 μg/ml with PBS buffer at pH 7.4 (Sigma, Cat No. P4417-100TAB), and added to a 96-well plate at a volume of 50 μl/well and then, the plate was incubated in the incubator at 37° C. for 2 hours. After discarding the liquid, the plates were blocked with 200 μl/well of blocking solution containing 5% skim milk (Bright Dairy, skim milk powder) in PBS, and incubated in the incubator at 37° C. for 2.5 hours or overnight at 4° C. (16-18 hours). After blocking, the blocking solution was discarded and the plate was washed 5 times with PBST buffer (PH7.4 PBS containing 0.05% tween-20). LAG-3-Fc fusion protein (SEQ ID NO:3, produced in-house) or LAG-3-mFc fusion protein (SEQ ID NO: 4, produced in-house) was diluted with sample diluent (PH7.4 PBS containing 1% BSA) to 1 μg/ml and was added to each well, 50 μl/well. Then the plate was incubated in the incubator at 37° C. for 1 h or overnight at 4° C. After incubation, the reaction solution in the plate was discarded, and the plate was washed with PBST for 6 times, and then was added with 50 μl/well of various concentrations of antibodies to be tested (hybridoma purified antibody or humanized antibody) which have been diluted with sample diluent, and the plate was incubated at 37° C. for 1 h. The plates was washed 5 times with PBST after incubation, and was added with 100 μl/well of goat anti-mouse (Jackson Immuno Research, Cat No. 115-035-003) or goat anti-human secondary antibody (Jackson Immuno Research, Cat No. 109-035-003) labeled with HRP, diluted in sample diluent, and the plate was incubated at 37° C. for 1 h.

[2] = target: T2, Fusion protein of LAG-3 extracellular region and hIgG1 Fc (human); experiment: competition: biotin-LAG-3-Fc binding to fixed Daudi cells, antibody titrated
T2 construct: Limits of the signal peptide are marked only by lost underlining; also called LAG-3-Fc; LAG-3-Fc fusion protein
Method: Daudi cells (human leukemia cells, purchased from the cell bank in Chinese Academy of Sciences) were seeded in 96-well plate with a density of 3×10⁵/well. After centrifugation at 1000 rpm, the supernatant was discarded and then the plate was fixed with 4% PFA for 30 min at room temperature. The plate was washed 4 times with PBS after discarding the fixed solution, and the plate was blocked with 200 μl/well of blocking solution containing 5% skim milk (Bright Dairy, skim milk powder) diluted in PBS, and incubated at 37° C. for 2.5 hours. After blocking, the blocking solution was discarded and the plate was washed 5 times with PBST buffer (pH7.4 PBS containing 0.05% tween-20), added with 50 μl/well mixture of biotin-labeled (Biotin labeling kit, Dojindo Chemical, Cat No. LK03) LAG-3-Fc fusion protein (produced in-house, SEQ ID NO: 3) and gradient concentrations of the antibody to be tested, wherein the biotin-labeled LAG-3-Fc fusion protein has been diluted with sample diluent (PH7.4 PBS containing 1% BSA) at a final concentration of 0.4 μg/ml, and pre-mixed for an hour, then the plate was incubated at 37° C. for 1 h. The reaction solution was discarded and the plate was washed 5 times with PBST after incubation, 50 μl/well of HRP-labeled Streptavidin (Sigma, Cat No. 52438) diluted with sample diluent was added, and the plate was incubated at 37° C. for 1 h. After washing the plate 5 times with PBST, 50 μl/well of TMB chromogenic substrate (KPL, Cat No. 52-00-03) was added to each well, and incubated at room temperature for 5-15 min, the reaction was stopped by the addition of 50 μl 1M H₂SO₄ to each well. The OD value at a wavelength of 450 nm was read on NOVOStar microplate reader, and then the activity of the LAG-3 antibody in blocking the binding of the antigen to Daudi cells was calculated.

[3] = target: T3, LAG-3 extracellular domain with a Flag tag (human, UniProt P18627 23-434); experiment: SPR (Biacore), antibody captured on anti-human capture chip, LAG-3-Flag in flow
T3 construct: also called LAG-3-Flag; LAG-3-Flag antigen
T3 sequence: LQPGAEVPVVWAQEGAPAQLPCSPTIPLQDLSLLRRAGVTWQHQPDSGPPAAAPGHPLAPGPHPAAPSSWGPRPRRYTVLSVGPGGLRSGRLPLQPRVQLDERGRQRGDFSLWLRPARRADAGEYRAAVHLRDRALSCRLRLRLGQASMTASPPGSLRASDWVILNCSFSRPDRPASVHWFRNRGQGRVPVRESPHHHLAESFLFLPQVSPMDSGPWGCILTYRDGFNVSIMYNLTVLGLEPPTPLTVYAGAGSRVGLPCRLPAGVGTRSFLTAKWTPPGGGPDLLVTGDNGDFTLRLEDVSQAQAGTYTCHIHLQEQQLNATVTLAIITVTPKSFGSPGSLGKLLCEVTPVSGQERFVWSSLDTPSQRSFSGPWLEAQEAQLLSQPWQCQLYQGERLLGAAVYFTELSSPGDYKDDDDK
Excerpt: 2. […] Then, the LAG-3-Flag antigen (produced in-house, SEQ ID NO:1) was flowed through the surface of the biochip, and the reaction signal was detected real time using a Biacore instrument to obtain the binding and dissociation curves, the value of affinity was obtained by fitting, see table 10 below. After each cycle of dissociation was finished in the experiment, the biochip was washed and regenerated with a regeneration solution provided in the human anti-capture kit.

T2 sequence (chain, as listed by the source limits assumed): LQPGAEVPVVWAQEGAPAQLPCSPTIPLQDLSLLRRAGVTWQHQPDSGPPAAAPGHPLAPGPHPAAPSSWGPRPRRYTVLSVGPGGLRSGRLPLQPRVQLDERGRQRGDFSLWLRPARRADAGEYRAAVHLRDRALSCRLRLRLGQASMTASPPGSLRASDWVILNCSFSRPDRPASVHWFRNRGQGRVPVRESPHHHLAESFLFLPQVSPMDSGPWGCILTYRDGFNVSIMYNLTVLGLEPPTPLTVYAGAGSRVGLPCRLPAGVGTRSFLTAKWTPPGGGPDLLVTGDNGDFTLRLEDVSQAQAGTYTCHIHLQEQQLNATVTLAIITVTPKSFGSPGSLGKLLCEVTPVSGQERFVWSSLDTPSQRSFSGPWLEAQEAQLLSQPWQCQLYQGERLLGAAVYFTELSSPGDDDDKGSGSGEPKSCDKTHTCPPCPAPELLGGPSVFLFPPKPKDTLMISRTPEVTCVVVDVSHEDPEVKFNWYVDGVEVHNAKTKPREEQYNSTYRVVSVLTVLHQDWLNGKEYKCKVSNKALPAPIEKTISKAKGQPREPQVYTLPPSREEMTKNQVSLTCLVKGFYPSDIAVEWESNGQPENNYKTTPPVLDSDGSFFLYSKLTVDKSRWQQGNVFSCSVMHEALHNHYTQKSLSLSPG

EC50 [1]	IC50 [2]	Kd [3]	Binder
0.278 nM	0.502 nM	1.06 nM	B1
0.145 nM	0.36 nM	–	B2
0.288 nM	0.821 nM	0.0753 nM	B3
0.316 nM	0.417 nM	0.943 nM	B4
0.232 nM	0.467 nM	0.491 nM	B5
0.309 nM	0.622 nM	0.0715 nM	B6
0.161 nM	0.395 nM	0.0748 nM	B7
0.152 nM	0.369 nM	–	B8
0.153 nM	0.718 nM	0.0374 nM	B9
0.152 nM	0.559 nM	0.0488 nM	B10
0.154 nM	0.875 nM	–	B11
0.201 nM	0.566 nM	–	B12
